Measured values taken from US20220289856A1 (IGM BIOSCIENCES, published 2022).
Where a chain is given by its changes, count along the chain named.

B1: anti-CD123×CD3 IgG #1 (bispecific antibody)
heavy 1: QVQLQQSGAEVKKPGASVKVSCKASGYTFTDYYMKWVKQSHGKSLEWMGDIIPSNGATFYNQKFKGKATLTVDRSTSTAYMELSSLRSEDTAVYYCARSHLLRASWFAYWGQGTLVTVSSASTKGPSVFPLAPSSKSTSGGTAALGCLVKDYFPEPVTVSWNSGALTSGVHTFPAVLQSSGLYSLSSVVTVPSSSLGTQTYICNVNHKPSDTKVDKKVEPKSCDKTHTCPPCPAPPVAGPSVFLFPPKPKDTLMISRTPEVTCVVVDVKHEDPEVKFNWYVDGVEVHNAKTKPREEEYNSTYRVVSVLTVLHQDWLNGKEYKCKVSNKALPAPIEKTISKAKGQPREPQVYTLPPSREEMTKNQVSLTCDVSGFYPSDIAVEWESDGQPENNYKTTPPVLDSDGSFFLYSKLTVDKSRWEQGDVFSCSVMHEALHNHYTQKSLSLSPGK
light: not shown
heavy 2: not shown
notes: Construct described in WO 2017/210443 A1, made by commercial vendors; also called bispecific anti-CD123×CD3 IgG #1; anti-CD123×anti-CD3 BiTE construct
B2: IGM #A-b-J*-H1 (bispecific antibody)
chain 1: EVQLVQSGAEVKKPGESLKISCKGSGYSFTDYYMKWARQMPGKGLEWMGDIIPSNGATFYNQKFKGQVTISADKSISTTYLQWSSLKASDTAMYYCARSHLLRASWFAYWGQGTMVTVSS
chain 2: DIVMTQSPDSLAVSLGERATINCESSQSLLNSGNQKNYLTWYQQKPGQPPKPLIYWASTRESGVPDRFSGSGSGTDFTLTISSLQAEDVAVYYCQNDYSYPYTFGQGTKLEIKR
chain 3: not shown
B3: anti-CD123 IgG #1 (antibody, V domains shown)
VH: QVQLQQSGAEVKKPGASVKVSCKASGYTFTDYYMKWVKQSHGKSLEWMGDIIPSNGATFYNQKFKGKATLTVDRSTSTAYMELSSLRSEDTAVYYCARSHLLRASWFAYWGQGTLVTVSS
VL: B2 chain 2 with I2F, E24K, S32T, P52L, S69T, Q106G
notes: Mono-specific IgG version of anti-CD123 #1; also called mono-specific IgG anti-CD123 construct
B4: IGM #B-b-J*-H1 (bispecific antibody)
VH: QIQLVQSGPELKKPGETVKISCKASGYIFTNYGMNWVKQAPGKSFKWMGWINTYTGESTYSADFKGRFAFSLETSASTAYLHINDLKNEDTATYFCARSGGYDPMDYWGQGTSVTVSS
VL: DIVLTQSPASLAVSLGQRATISCRASESVDNYGNTFMHWYQQKPGQPPKLLIYRASNLESGIPARFSGSGSRTDFTLTINPVEADDVATYYCQQSNEDPPTFGAGTKLELK
J-chain: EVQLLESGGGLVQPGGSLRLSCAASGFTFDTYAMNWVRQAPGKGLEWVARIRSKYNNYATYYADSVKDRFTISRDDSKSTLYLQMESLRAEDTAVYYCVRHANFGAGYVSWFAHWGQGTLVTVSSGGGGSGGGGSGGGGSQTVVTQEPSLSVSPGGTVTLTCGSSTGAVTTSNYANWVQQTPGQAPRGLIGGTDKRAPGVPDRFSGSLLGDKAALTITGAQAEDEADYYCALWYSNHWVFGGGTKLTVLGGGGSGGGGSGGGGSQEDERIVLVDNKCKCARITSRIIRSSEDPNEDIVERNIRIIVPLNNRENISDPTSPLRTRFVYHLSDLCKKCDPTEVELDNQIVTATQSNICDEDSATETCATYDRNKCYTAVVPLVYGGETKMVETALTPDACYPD
B5: IGM #F-b-J*-H1 (bispecific antibody)
VH: QVQLQESGPGLVKPSQSLSLTCSVTDYSITSGYYWNWIRQFPGNKLEWMGYISYDGSNNYNPSLKNRISITRDTSKNQFFLKLSSVTTEDTATYYCSRGEGFYFDSWGQGTTLTVSS
VL: DIMMSQSPSSLAVSVGEKFTMTCKSSQSLFFGSTQKNYLAWYQQKPGQSPKLLIYWASTRESGVPDRFTGSGSGTDFTLAISSVMPEDLAVYYCQQYYNYPWTFGGGTKLEIK
J-chain: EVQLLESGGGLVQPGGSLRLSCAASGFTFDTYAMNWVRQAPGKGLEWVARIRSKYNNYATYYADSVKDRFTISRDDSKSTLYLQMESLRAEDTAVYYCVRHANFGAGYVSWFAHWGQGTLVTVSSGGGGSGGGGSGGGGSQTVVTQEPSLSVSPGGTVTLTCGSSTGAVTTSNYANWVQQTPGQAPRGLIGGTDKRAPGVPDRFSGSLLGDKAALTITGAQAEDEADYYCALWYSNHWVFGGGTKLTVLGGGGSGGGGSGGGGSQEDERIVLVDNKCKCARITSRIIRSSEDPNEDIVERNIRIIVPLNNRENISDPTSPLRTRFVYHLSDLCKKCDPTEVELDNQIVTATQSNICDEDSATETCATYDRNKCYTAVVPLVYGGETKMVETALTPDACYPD
notes: IgM pentamer with a modified J-chain
B6: anti-CD123 IgG #2 (antibody, V domains shown)
VH: QVQLVQSGAEVKKPGASVKVSCKASGYTFTSYWMNWVRQAPGQGLEWMGRIDPYDSETHYNQKFKDRVTMTVDKSTSTAYMELSSLRSEDTAVYYCARGNWDDYWGQGTTVTVSS
VL: EVVLTQSPATLSLSPGERATLSCRASKSISKDLAWYQQKPGQAPRLLIYSGSTLQSGIPARFSGSGSGTDFTLTISSLEPEDFAVYYCQQHNKYPYTFGGGTKVEIKR
notes: Mono-specific IgG version of anti-CD123 #2; also called mono-specific IgG anti-CD123 construct
B7: anti-CD123×CD3 IgM #2 (bispecific antibody)
heavy: QVQLVQSGAEVKKPGASVKVSCKASGYTFTSYWMNWVRQAPGQGLEWMGRIDPYDSETHYNQKFKDRVTMTVDKSTSTAYMELSSLRSEDTAVYYCARGNWDDYWGQGTTVTVSSGSASAPTLFPLVSCENSPSDTSSVAVGCLAQDFLPDSITFSWKYKNNSDISSTRGFPSVLRGGKYAATSQVLLPSKDVMQGTDEHVVCKVQHPNGNKEKNVPLPVIAELPPKVSVFVPPRDGFFGNPRKSKLICQATGFSPRQIQVSWLREGKQVGSGVTTDQVQAEAKESGPTTYKVTSTLTIKESDWLSQSMFTCRVDHRGLTFQQNASSMCVPDQDTAIRVFAIPPSFASIFLTKSTKLTCLVTDLTTYDSVTISWTRQNGEAVKTHTNISESHPNATFSAVGEASICEDDWNSGERFTCTVTHTDLPSPLKQTISRPKGVALHRPDVYLLPPAREQLNLRESATITCLVTGFSPADVFVQWMQRGQPLSPEKYVTSAPMPEPQAPGRYFAHSILTVSEEEWNTGETYTCVVAHEALPNRVTERTVDKSTGKPTLYNVSLVMSDTAGTCY
light: EVVLTQSPATLSLSPGERATLSCRASKSISKDLAWYQQKPGQAPRLLIYSGSTLQSGIPARFSGSGSGTDFTLTISSLEPEDFAVYYCQQHNKYPYTFGGGTKVEIKRTVAAPSVFIFPPSDEQLKSGTASVVCLLNNFYPREAKVQWKVDNALQSGNSQESVTEQDSKDSTYSLSSTLTLSKADYEKHKVYACEVTHQGLSSPVTKSFNRGEC
chain: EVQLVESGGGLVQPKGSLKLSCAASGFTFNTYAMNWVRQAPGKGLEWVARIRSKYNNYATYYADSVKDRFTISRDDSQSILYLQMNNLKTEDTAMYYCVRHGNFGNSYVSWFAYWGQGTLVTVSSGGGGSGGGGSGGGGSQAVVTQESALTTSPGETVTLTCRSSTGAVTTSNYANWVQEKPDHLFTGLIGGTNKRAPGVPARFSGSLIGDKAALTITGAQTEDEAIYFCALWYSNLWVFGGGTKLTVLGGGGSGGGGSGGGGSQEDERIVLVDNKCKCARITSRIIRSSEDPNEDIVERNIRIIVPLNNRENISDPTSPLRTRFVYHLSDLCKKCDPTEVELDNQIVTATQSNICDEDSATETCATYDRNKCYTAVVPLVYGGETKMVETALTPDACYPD
B8: anti-CD123×CD3 IgM #1 (bispecific antibody)
heavy: QVQLQQSGAEVKKPGASVKVSCKASGYTFTDYYMKWVKQSHGKSLEWMGDIIPSNGATFYNQKFKGKATLTVDRSTSTAYMELSSLRSEDTAVYYCARSHLLRASWFAYWGQGTLVTVSSGSASAPTLFPLVSCENSPSDTSSVAVGCLAQDFLPDSITFSWKYKNNSDISSTRGFPSVLRGGKYAATSQVLLPSKDVMQGTDEHVVCKVQHPNGNKEKNVPLPVIAELPPKVSVFVPPRDGFFGNPRKSKLICQATGFSPRQIQVSWLREGKQVGSGVTTDQVQAEAKESGPTTYKVTSTLTIKESDWLSQSMFTCRVDHRGLTFQQNASSMCVPDQDTAIRVFAIPPSFASIFLTKSTKLTCLVTDLTTYDSVTISWTRQNGEAVKTHTNISESHPNATFSAVGEASICEDDWNSGERFTCTVTHTDLPSPLKQTISRPKGVALHRPDVYLLPPAREQLNLRESATITCLVTGFSPADVFVQWMQRGQPLSPEKYVTSAPMPEPQAPGRYFAHSILTVSEEEWNTGETYTCVVAHEALPNRVTERTVDKSTGKPTLYNVSLVMSDTAGTCY
light: not shown
chain: not shown
notes: also called Anti-CD123 XCD3 IgM #1
B9: IGM #C-b-J*-H1 (bispecific antibody)
VH: QVQLQQPGAELVRPGASVKLSCKASGYTFTSYWMNWVKQRPDQGLEWIGRIDPYDSETHYNQKFKDKAILTVDKSSSTAYMQLSSLTSEDSAVYYCARGNWDDYWGQGTTLTVSS
VL: DVQITQSPSYLAASPGETITINCRASKSISKDLAWYQEKPGKTNKLLIYSGSTLQSGIPSRFSGSGSGTDFTLTISSLEPEDFAMYYCQQHNKYPYTFGGGTKLEIK
J-chain: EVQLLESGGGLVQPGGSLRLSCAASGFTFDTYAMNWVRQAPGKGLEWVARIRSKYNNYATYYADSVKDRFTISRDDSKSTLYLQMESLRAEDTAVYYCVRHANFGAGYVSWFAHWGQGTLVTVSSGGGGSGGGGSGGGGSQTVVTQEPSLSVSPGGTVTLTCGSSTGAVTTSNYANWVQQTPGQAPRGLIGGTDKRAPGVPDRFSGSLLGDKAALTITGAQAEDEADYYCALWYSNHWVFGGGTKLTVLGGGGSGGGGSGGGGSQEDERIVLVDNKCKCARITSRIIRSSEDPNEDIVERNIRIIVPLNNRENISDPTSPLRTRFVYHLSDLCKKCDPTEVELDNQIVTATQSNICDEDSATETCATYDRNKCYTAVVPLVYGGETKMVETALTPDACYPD

Experiments:
[1] = biological target: recombinant human CD3ε protein (Acro Biosystems, CDE-H5256-100) (human, UniProt P07766 23-126); test: ELISA on plate-coated recombinant human CD3ε
Chain of recombinant human CD3ε protein (Acro Biosystems, CDE-H5256-100) (P07766 23-126 limits assumed): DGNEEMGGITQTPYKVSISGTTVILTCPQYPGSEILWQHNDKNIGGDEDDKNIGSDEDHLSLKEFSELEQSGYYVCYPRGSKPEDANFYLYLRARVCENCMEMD
Description: (§1) 96-well white polystyrene ELISA plates (Pierce 15042) were coated with 100 μL per well of 0.5 μg/mL recombinant human CD123 protein (Sino Biological 10518-H08H-50) or recombinant human CD3ε protein (Acro Biosystems, CDE-H5256-100) overnight at 4° C. Plates were then washed 5 times with 0.05% PBS-Tween and blocked with 2% BSA-PBS. After blocking, 100 μL of serial dilutions of CD123 IgM or IgG, standards, and controls were added to the wells and incubated at room temperature for 2 hours. The plates were then washed 10 times and incubated with HRP conjugated mouse anti-human kappa (Southern Biotech, 9230-05. 1:6000 diluted in 2% BSA-PBS) for 30 min. After 10 final washes using 0.05% PBS-Tween, the plates were read out using SuperSignal chemiluminescent substrate (ThermoFisher, 37070). Luminescent data were collected on an EnVision plate reader (Perkin-Elmer) and analyzed with GraphPad Prism using a 4-parameter logistic model.

[2] = biological target: T1, recombinant human CD123 protein (Sino Biological 10518-H08H-50) (human, UniProt P26951 19-305); test: ELISA on plate-coated recombinant human CD123, as in Example 2
T1 construct: also called IL-3 receptor alpha chain; IL-3Rα
T1 sequence (looked up): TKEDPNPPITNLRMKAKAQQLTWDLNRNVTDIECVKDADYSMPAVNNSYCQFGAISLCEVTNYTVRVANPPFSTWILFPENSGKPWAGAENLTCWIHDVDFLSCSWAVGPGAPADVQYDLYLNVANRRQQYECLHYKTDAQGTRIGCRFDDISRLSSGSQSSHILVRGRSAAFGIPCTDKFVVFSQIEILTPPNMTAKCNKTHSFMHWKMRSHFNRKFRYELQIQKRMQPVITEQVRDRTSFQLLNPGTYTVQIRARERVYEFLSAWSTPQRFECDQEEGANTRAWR
Description: as §1

[3] = biological target: T1, recombinant human CD123 protein (Sino …); test: ELISA on plate-coated recombinant human CD123
Description: as §1

[4] = biological target: T2, CD123 on AML cells (Kg-1a, MOLM-13, MV4-11, THP-1, PL21) (UniProt P26951 19-378); test: cell-based or functional assay
[5] = biological target: T2, CD123 on AML cells (Kg-1a, MOLM-13, …); test: cell-based or functional assay; remark: listed apart in the source

Binder	binding result [1]	EC50 [2] [pM]	binding result [3]	T Cell-Directed Killing EC50 (pM), MV411, Strong Donor T cells [4] [pM]	T Cell-Directed Killing EC50 (pM), MV411, Weak Donor T cells [4] [pM]	T Cell-Directed Killing EC50 (pM), PL21, Strong Donor T cells [4] [pM]	T Cell-Directed Killing EC50 (pM), THP-1, Strong Donor T cells [4] [pM]	other results
B1	binds							
B2		198						
B3	no binding		binds					
B4		298		41.2	35.3	4.9	12.9	T Cell-Directed Killing EC50 (pM), PL21, Weak Donor T cells [4]: 227 pM; T Cell-Directed Killing EC50 (pM), THP-1, Weak Donor T cells [4]: 46.2 pM
B5		530		273	1080	102	66.3	
B6	no binding		binds					
B7	binds		binds					
B8	binds							T cell-directed killing of MV4-11 cells (luciferase), EC50 [5]: 13.6 pM; T cell-directed killing of THP-1 cells (luciferase), EC50 [5]: 11.1 pM
B9		354		0.1	528	147	104	T Cell-Directed Killing EC50 (pM), THP-1, Weak Donor T cells [4]: 990 pM
